Data reported in the nanobody polyreactivity screen of Harvey et al. (2022).

experiment: yeast display, Sf9 membrane polyspecificity reagent, FACS + sequencing; frameworks hold sequencing errors
Outline: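 Galactose-induced (36–48 hours) yeast carrying a synthetic nanobody display library were exposed to 10% biotinylated, detergent-solubilized Sf9 membrane reagent at 4 °C for 1 hour. FACS followed streptavidin microbead enrichment, using low and high (top ~1%) gates for expression (anti-HA) and reagent binding (streptavidin). Colony PCR, MiSeq 2 × 250 sequencing and CDR-length filtering followed. Labels for polyreactivity reflect the gate of origin.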

| Sequence | polyreactivity (PSR sort gate) |
| --- | --- |
| QVQLVESGGGLVQAGCSLRLSCAASGRIFASNPMGWYRQAPGKERELVAGISRNGGSTFYADSVKGRFTISRDNAKNTVDVQMHSLKPEDTEVYYCARYFTHSGGYRDRIYYYWGQGTQVTVSS | low polyreactivity |
| QVQLVESGGGLVQAGCSLRLSCAASGRIFDGNAMGWYRQAPGKERELVAAISWTGGSTYYADSVKGRFTISRDNAKNTVYLQMNSLKPEDTAVYYCAADSGWWLEQWSWYDYWGQGTQVTVSS | low polyreactivity |
| QVQLVESGGGLVQAGCSLRLSCAASGRIFHLYAMGWYTQAPGKERELVAAITGRGGSTYYADSVKGRFTISRDNAKNTVYLQINCLKPEDTAVYYCASYEFGFLRYYSGRSYYYWGQGTQVTVSS | high polyreactivity |
| QVQLVESGGGLVQAGCSLRLSCAASGRIFWMNTMGRYRQAPGKERELVAAISFRSDDTYYADSVKGRFTISRDIAKNTVYLQMKSLKPEDTAVYYCNKAWFPYYFYRFDYWGQGTQVTVSS | high polyreactivity |
| QVQLVESGGGLVQAGCSLRLSCAASGRILFGYAMGWYRQAPGKERELVAAITGSGDSTYYADSVKGRFTISRDNAKNAVYLQLYSLKPEDTAVYYCATEEVYGQGNYWGHGTQVTVSS | low polyreactivity |
| QVQLVESGGGLVQAGCSLRLSCAASGRTFGTYTKGWYRQAPGKERELVAAIYTRDGSTYYADSVKGRFSISRDNAKNTVYLQMNSLKPDDTAFYYCNAVVRYYDWGYWDYDYWGQGTQVTVSS | low polyreactivity |
| QVQLVESGGGLVQAGCSLRLSCAASGRTFNGYAMGWYRQAPGKERELVAAIASEGDTNYADSVKGRFTISRDNAKNTVYLQMNSLKPEDTAVYYCNADITRIWHFKYDYWGQGTQVTVSS | high polyreactivity |
| QVQLVESGGGLVQAGCSLRLSCAASGRTFNYYAMGWYRQAPGKERELVAAISVSGVRTYYADSVKGRFTISRDNAKNSVYLQMNSLKPEDTAVYYCAGLYQSVRGYVYWGQGTQVTVSS | high polyreactivity |
| QVQLVESGGGLVQAGCSLRLSCAASGRTLFKYAMGWYRQAPGKERELVAVISWGGGITYYADSVKGRFTISRDNAKNTVYLKMNSLKPEDTAVYYCATDSHARFYRYYWGQGTQVTVSS | low polyreactivity |
| QVQLVESGGGLVQAGCSLRLSCAASGSFFSSNSMGWYRQAPGTERELVAAISRSGGNTYYADSVKGRFTISRDNAKNTVYLQMNSLKPEDTAVYYCAVVGRHGQKYDWGQGNQVTVSS | high polyreactivity |
| QVQLVESGGGLVQAGCSLRLSCAASGSIFARYAMGWSRQAPGKERELVAAINSTVSTNYADSVKGRFTISRDNAKNTVYLQMNSLKTEDTAVYYCAVDIVRGGRDSWGQGTQVTVSS | low polyreactivity |
| QVQLVESGGGLVQAGCSLRLSCAASGSIFDSKAMGWYRQAPGKERELVAAISSSGARTYYADSVKGRFTISRDNAKNTVYLQMNSLKPEDTAVYYCAAKPGYKSKMDYWGQGTQVTVSS | high polyreactivity |
| QVQLVESGGGLVQAGCSLRLSCAASGSIFGWYAMGWYRPAPGKERELVAAITLIGGSTYYADSVKGRFTISRDNAKNTVYLQMNSLKPEDTAVYYCNAVWYWGDMDYWGQGTQVTVSS | low polyreactivity |
| QVQLVESGGGLVQAGCSLRLSCAASGSILWHYAMGWYRPAPGKERELVAAISGSGRTNYADSVKGGFTISRDNAKNTVYLQLNSLKPEDTAVYYGARVHGTSESKYYYWGQGTQVTVSL | low polyreactivity |
| QVQLVESGGGLVQAGCSLRLSCAASGSTFYYYAMGWYRQAPGKERELVAAISNRDGRTYYADSVKGRFTISRDTAKNTVYFQMNSLKPEDSAVYYCNAYSYGHYYWGHGTQVTVSS | high polyreactivity |
| QVQLVESGGGLVQAGCSLRLSCAASGSTYIRNAMGWYRQAPGKERELVAAISTSGSRTYYADSVKGRFTISRDNAKNTVYLQMNSLKPEDTAVYYCAKVPAGSRIEYDYCGQGTQVTVSS | high polyreactivity |
| QVQLVESGGGLVQAGCSLRLSCAASGTIFWYYAMGWYRQAPGKERELVAAISSGGSTYYADSVKGRFTISRDNAKNTVYLQMNSLKPEDTAVYYCNVRLRKKIQNSKYDYWGQGTQVTVSS | high polyreactivity |
